# Experiments:
# Assay type in all cases: binding
# Aβ fibers = Aβ fibers (Homo sapiens, UniProt P05067); assay: Aβ fiber assay in 40% TFE; conditions: di-pyrene labeled
# Text: An Aβ fiber assay may be conducted in an organic solvent, such as 40% TFE. […] This conformation is associated with the monomer or self fluorescence of the pyrene moieties (370-410 nm; see FIG. 6). […] This conformation is associated with the excimer fluorescence of the pyrene moieties (430-530 nm; see FIG. 6).
# [1] = biological target: biotinylated Aβ42 oligomers (Homo sapiens, UniProt P05067); assay: In vitro affinity chromatography-based interaction assay (streptavidin beads); conditions: 4 μM probe
# Description: In this assay, soluble peptide probes are combined with, for example, soluble target protein oligomers in an in vitro affinity chromatography-based interaction assay. For this example, target protein is labeled with an affinity molecule, such as biotin, and incubated with a labeled peptide probe. After incubation, the mixture is incubated with the capture moiety, such as streptavidin, on a support, for example a column or beads, such that the target protein is captured. After washing of unbound material, the support can be examined for detection of the labeled peptide probe, which would indicate the presence of bound target protein-peptide probe complexes on the support. Alternatively, the bound material may be eluted and then examined for detection of the labeled peptide probe. Again, detection of the labeled peptide probe would indicate the presence of target protein-peptide probe complexes in the eluant. FIGS. 5A and 15A illustrate an affinity chromatography assay using biotin-labeled target protein and streptavidin-coated beads. This type of assay is useful, for example, for assessing the efficacy of a given peptide probe. […] The beads are washed with PBS to remove unbound material and the captured material is analyzed by SDS-PAGE. […] […]
# Aβ42 Fiber = Aβ42 Fiber (Homo sapiens, UniProt P05067); assay: In vitro centrifugation-based interaction assay (insoluble complexes); conditions: 40% TFE, 3 hours incubation, 17,000×g 30 minutes
# Description: In this assay, soluble peptide probes are combined with insoluble target protein fibers in an in vitro centrifugation-based interaction assay. Peptide probe that binds to the target protein will be detected in an insoluble pellet, which may be isolated using centrifugation. […] Aβ42 Fiber (target protein) and peptide probe (SEQ ID NO:1) are incubated for 3 hours in the presence of increasing amounts of trifluoroethanol (TFE). The samples are centrifuged at 17,000×g for 30 minutes, and the pellets are denatured in sample buffer and analyzed by SDS-PAGE. Reference samples (Input) are shown for comparison.
# Aβ fibers, sequence (P05067 672-713 limits assumed): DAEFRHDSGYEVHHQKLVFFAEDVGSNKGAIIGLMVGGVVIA
# biotinylated Aβ42 oligomers, sequence (P05067 672-713 limits assumed): as above
# Aβ42 Fiber, sequence (P05067 672-713 limits assumed): as above
substance,measurement,setting,value
"KLVFFAEDVGSNKGAIIGLMK (KLVFFAEDVGSNKGAIIGLMK) [SEQ ID NO:1, Aβ protein residues 16-35, with added C-Terminal Lys]","conformation in the absence of Aβ fibers (CD, data not shown)",Aβ fibers,primarily alpha helical
same,conformation upon introduction of an Aβ fiber substrate (pyrene excimer fluorescence),Aβ fibers,adopts a β-sheet conformation
same,capture of labeled peptide probe with biotinylated Aβ42 oligomer on streptavidin beads (SDS-PAGE),[1],"labeled peptide probe is only detected in the captured material, in the presence of high molecular weight oligomers"
same,"binding of peptide probe to Aβ42 fiber (peptide band in pellet, SDS-PAGE)",Aβ42 Fiber,binding of target protein and peptide probe is clearly observed

# From patent US9696316B2, “Conformationally dynamic peptides” (SYSTEM OF SYSTEMS ANALYTICS, INC., priority 2009, dated 2017)
